Reference: patent US11466067B2 (priority 2019, dated 2022)

Assays:
[1] = test system: circulating cytokines, chemokines, growth factors; type: in vivo, mice
[2] = test system: polarized gut epithelial cells; experiment: In vivo transcytosis across gut epithelium after intraluminal injection; parameters: species or system Wistar rats; settings: luminal application, rat jejunum
Method: In vivo transcytosis was tested using male Wistar rats. Male Wistar rats were housed 3-5 per cage with a 12/12 h light/dark cycle and were about 225-275 g (approximately 6-8 weeks old) when placed on study. Experiments were conducted during the light phase using a non-recovery protocol that uses continuous isoflurane anesthesia. A 4-5 cm midline abdominal incision that exposed mid-jejunum regions was conducted. Stock solutions at 3.86×10^−5M of delivery construct were prepared in phosphate buffered saline (PBS), with 50 μL (per 250 g rat) being administered by intraluminal injection (ILI) using a 29-gauge needle. The injection site mesentery was then marked with a permanent marker. At study termination, a 3-5 mm region that captured the marked intestine segment was isolated and processed for microscopic assessment. The in vivo experiments were performed in accordance with the U.K. Animals (Scientific Procedures) Act of 1986, the European Communities Council Directive of 1986 (86/609/EEC).

[3] = PK/PD by oral, subcutaneous, intravenous route in NHP; type: in vivo, Macaca fascicularis
Source text: For oral administration the IL-10 delivery construct was formulated in size 0 enteric coated capsules. For intravenous or subcutaneous administration it was formulated as a liquid in DS lyo formulation.

[4] = Single oral capsule dose in NHP: plasma total IL-10; type: in vivo, Macaca fascicularis
Source text: IL-10 delivery constructs (SEQ ID NO: 5) and caffeine were filled by weight into size-1 Capsugel V-Cap Hydroxypropyl Methylcellulose (HPMC) capsules, for oral administration. The capsules were then successively coated in a pan spray coater with three layers of polymers. The first and third layer were thin coatings of HPMC, the first to seal the crease where the capsule shells come together, and the third to minimize sticking of the capsules to each other. The second coating layer was comprised of a 50:50 mixture of Eudragit® (Evonik Industries AG) enteric acrylic polymers FS 30 D and L 30 D-55, designed to dissolve and allow the capsule to open at pH 6.5.
The MSD Small Spot IL-10 plate was washed 3 times with PBST before use. Standards were prepared in Diluent 2 (MSD Cat No R51BB), and samples diluted 2-fold in Diluent 2. Standards and diluted samples were added to the assay plate and the plate incubated for 2 hours at room temperature with shaking. The plate was washed 3 times with PBST and 1×SULFO TAG anti-huIL-10. Antibody was added to the plate before incubation for 1 hour at room temperature with shaking. Following a wash step, 2×MSD Read buffer was added to the wells of the plate and the plate is read in the MSD Sector Imager 600 plate reader. The lower limit of detection of each analyte is defined as 2.5 standard deviation above background.
Plasma samples were analyzed for Total IL-10, IL-1Ra, caffeine content and a panel of proinflammatory cytokines. Assay LLOQs were: total IL-10=0.3 pg/mL; IL-1Ra=78 pg/mL; and caffeine=[…]. Plasma concentration of IL-10 can refer to the concentration in plasma of both naturally occurring IL-10 and IL-10 appended to a carrier (for example, IL-10 in an IL-10 delivery construct described herein).
IL-10 delivery construct dosing at multiple fixed doses in non-naïve adult male Macaca fascicularis was conducted by Valley Biosystems (West Sacramento, Calif.). […] Dosing groups are described in TABLE 45.
Animals were fasted until after the 3 hour blood sample collection, when food was given. For dosing, the animals were manually restrained and a bite block placed between the jaws. A pill gun containing the dosing capsule was inserted into the back of the oral cavity and the capsule released. Up to 4 capsules were administered consecutively and a small amount of water given to induce swallowing. Once the administration of the dose was confirmed, the bite block was removed and the head released.
Blood samples were collected in K2EDTA tubes from each animal pre-dose and at 0.5, 1, 2, 3, 4, 5, 6, 7, 8, and 24 hours post-dose. Animals were returned to home cages following the 2-hour sample collection. Following physical restraint, blood samples were collected via direct venous puncture using a cephalic, femoral or saphenous vein, which were processed to plasma and stored frozen at −60° C. until shipment.

[5] = test system: T lymphocytes and macrophages; experiment: Cellular target in Lamina propria (CD3, F4/80, pSTAT3) after oral gavage; type: in vivo, mouse
colonic genes = experiment: Pan-colonic administration in NHP: colonic gene expression at 8 h; type: in vivo, cynomolgus monkeys
Method: Colonic biopsies at each tissue timepoint were analyzed for local concentration of IL-10 delivery construct, total IL-10, IL-1Ra, soluble cytokines, activation of STAT3 and gene expression following administration of the IL-10 delivery construct. […] In addition, STC1, MTNR1A and VNN2 encode proteins that suppress the […] signaling pathway, a pathway through which key pro-inflammatory cytokines are regulated. […] This is consistent with the ability of IL-10 to suppress these cells' activation or differentiation towards a pro-inflammatory immune phenotype.

circulating cytokines = experiment: Plasma cytokines by MSD V-plex Proinflammatory Panel 1 (Example 14); type: in vivo, mice
Source text: Plasma cytokines were quantified using the V-plex Proinflammatory Panel 1 Mouse Kit. Plasma IL-1Ra was quantitated by sandwich immunoassay using an antibody pair from the Mouse IL-1Ra/IL-1F3 DuoSet ELISA (R&D Systems #DY480), Streptavidin SULFO-TAG Labeled (MSD #R32AD-1), Multi-Array 96 Plate Pack, SECTOR Plate MSD #L15XA-3 and Read Buffer T (4×) (MSD #R92TC-2). Samples were read on the QuickPlex SQ 120 plate reader (Meso Scale Discovery, Rockville, Md.).

STAT3 phosphorylation = experiment: In vivo pSTAT3 induction after intraluminal injection or oral gavage; parameters: species or system Balb/C mice; settings: intraluminal injection, jejunum
Method: In vivo studies in mice were performed where the biological activity of human IL-10 following transcytosis was assessed for its ability to stimulate the mouse IL-10 receptor and increase phosphorylation of STAT3 (pSTAT3) in cells within the Lamina propria.
An extensive amount of rhIL-10 (SEQ ID NO: 5) was trafficked through enterocytes. Additionally, there were a population of lymphocyte-like cells at the basolateral surface of enterocytes and within the Lamina propria that were pSTAT3 positive.
Entire intestines of mice were isolated and processed as a “swiss role” and localization of pSTAT3 was detected by immunofluorescence confocal microscopy (FIG. 110).

B1: IL-10 delivery construct: recombinant homodimeric fusion protein: N-terminal methionine, cholix386 domain, polyGlySer spacer, recombinant human IL-10 (protein)
chain: MVEEALNIFDECRSPCSLTPEPGKPIQSKLSIPSDVVLDEGVLYYSMTINDEQNDIKDEDKGESIITIGEFATVRATRHYVNQDAPFGVIHLDITTENGTKTYSYNRKEGEFAINWLVPIGEDSPASIKISVDELDQQRNIIEVPKLYSIDLDNQTLEQWKTQGNVSFSVTRPEHNIAISWPSVSYKAAQKEGSRHKRWAHWHTGLALCWLVPMDAIYNYITQQNCTLGDNWFGGSYETVAGTPKVITVKQGIEQKPVEQRIHFSKGNAMSALAAHRVCGVPLETLARSRKPRDLTDDLSCAYQAQNIVSLFVATRILFSHLDSVFTLNLDEQEPEVAERLSDLRRINENNPGMVTQVLTVARQIYNDYVTHHPGLTPEQTSAGAQAGGGGSGGGGSGGGGSPGQGTQSENSCTHFPGNLPNMLRDLRDAFSRVKTFFQMKDQLDNLLLKESLLEDFKGYLGCQALSEMIQFYLEEVMPQAENQDPDIKAHVNSLGENLKTLRLRLRRCHRFLPCENKSKAVEQVKNAFNKLQEKGIYKAMSEFDIFINYIEAYMTMKIRN
modifications: homodimer
[1]; 0.3 mg/kg
  plasma IL-31: near-base line levels
[1]; 3.0 mg/kg
  plasma TGF-β relative to Vehicle: reduced
[1]; 9.0 mg/kg
  plasma IL-3: near-base line levels
  plasma IL-4: near-base line levels
  production of IL-12 and IL-17: prevented the production
[1]; 3.0 and 9.0 mg/kg
  plasma IL-28: near-base line levels
[1]; highest dose (9.0 mg/kg)
  plasma MCSF: reduced
[1]; mouse, in vivo
  oxazolone-induced changes in LIX, LIF, IP10: mitigated
  oxazolone-induced increase in plasma GCSF/CSF3: attenuated
  plasma IL-13 and IL-15 vs Vehicle: trend towards an IL-10 delivery construct-mediated decrease
[2]
  earliest time of IL-10 payload transport into the Lamina propria: 1 min
[3]; oral 1 mg or 5 mgs
  systemic IL-10 after oral vs subcutaneous or intravenous administration: minimal systemic levels of IL-10
[3]; subcutaneous 0.2 mg/kg or intravenous 0.05 mg/kg
  IL-1Ra/IL-10 ratio: minimal effect
[4]; 1 mg
  plasma total IL-10 Tmax: 4 h
[4]; 4 mg
  plasma total IL-10 Tmax: 3 h
[4]; 20.5 mg
  plasma total IL-10 Tmax: 2 hours post dose
[4]; 82 mg
  plasma total IL-10 Tmax: 2 hours post dose
[4]; 82 mg (4×20.5 mg capsules), oral
  plasma total IL-10 Cmax: 1.34 pg/mL
[5]; 40 min after oral gavage
  CD3+ cells co-localizing with pSTAT3: moderate proportion
[5]; after oral gavage
  F4/80 (macrophage) co-localization with pSTAT3: extensive co-localization with pSTAT3
Colonic genes
  MMP1, MMP3 and MMP19 expression: upregulated
  TIMP1 expression: increased
  anti-inflammatory genes (CD163, miR24-2, NOX1, STC1, MTNR1A, VNN2): upregulated
  pro-inflammatory genes (MHCII, PLA2G2D, CCL20, CCL13): decreased
Colonic genes; 12-hour fast prior to treatment
  CYP1A1 expression: downregulated
Circulating cytokines
  suppression of induction of plasma IL-4 (trend): 62%
  suppression of induction of plasma IL-6 (trend): 61%
  suppression of induction of plasma IL-12p70 (trend): 65%
  suppression of induction of plasma KC/GRO (trend): 51%
Circulating cytokines; p<0.05
  plasma IL-1β and IL-2 vs Vehicle: significantly reduced
STAT3 phosphorylation
  phosphorylation of STAT3 in cells within the Lamina propria: increased phosphorylation of STAT3
